{"source": "patent US12702697B2", "about": "“Compositions and methods for treatment of headache disorders and neuropathic pain” (Washington University, priority 2019, dated 2026)", "molecules": {"B1": {"name": "ld-IL2: Recombinant mouse IL2 (carrier-free; Biolegend), given as daily low-dose i.p. injection (protein, UniProt P04351 21-169, looked up)", "Interleukin-2": "APTSSSTSSSTAEAQQQQQQQQQQQQHLEQLLMDLQELLSRMENYRNLKLPRMLTFKFYLPKQATELKDLQCLEDELGPLRHVLDLTQSKSFQLEDAENFISNIRVTVVKLKGSDNTFECQFDDESATVVDFLRRWIAFCQSIISTSPQ"}}, "key": {"[1]": {"test_system": "SNI-induced punctate and dynamic allodynia in mice", "experiment": "Mouse model of spared nerve injury (SNI): punctate (von Frey) and dynamic (brush) allodynia", "type": "in vivo", "text": "Mouse model of SNI. Mice were anesthetized with 3-4% isoflurane in an induction chamber until losing the righting reflex. Anesthesia was maintained by 1.5-2% isoflurane through a nose cone. After skin and muscle incision to expose the right sciatic nerve in the thigh region, we tightly ligated two branches (sural and common peroneal nerves) with 7-0 silk suture (Braintree Scientific, Braintree, MA) and transected ~2 mm of the nerve distal to the ligature. The third branch of the sciatic nerve (tibial nerve) was left intact, and caution was taken not to stretch or contact the spared nerve. In sham mice the right sciatic nerve and its branches were exposed but were not touched. After the surgery, the overlying muscle and skin layers were closed separately with 6-0 vicryl suture and interrupted nylon suture for the skin incision, respectively.\nResponse to punctate mechanical stimuli on the hindpaw. Mice were habituated in individual clear plexiglass boxes (11×11×15 cm) for 1-2 hours. A series of calibrated von Frey filaments were used to apply mechanical stimuli to the medial plantar surface of the hindpaw (the tibial nerve territory). We used the up-down paradigm to determine the 50% withdrawal threshold.\nResponse to dynamic mechanical stimuli on the hindpaw. Mice were habituated in individual clear plexiglass boxes (11×11×15 cm) for 1-2 hours. The medial plantar surface of the hindpaw (tibial nerve territory) was stimulated by light stroking with a blunt paintbrush (5/0, Princeton Art & Brush Co., Princeton, NJ) from heel to toe at ~2 cm/second. The behavior was scored as described previously. Score 0 indicates no evoked movement or lifting the stimulated paw for less than 1 second. Score 1 indicates a sustained lifting (more than 2 seconds) of the stimulated paw toward the body or a single gentle flinching of the stimulated paw. Score 2 indicates a strong lateral lift of the stimulated paw above the level of the body or a startle-like jump. Score 3 indicates multiple flinching or licking of the stimulated paw. Each paw was tested 3 times, with minimal interval of 3 minutes. The scores of 3 tests were averaged to indicate the response to dynamic mechanical stimuli.\nLd-IL2 treatment. Recombinant mouse IL2 (carrier-free, Biolegend, San Diego, CA) was freshly diluted from the stock (0.5-1 mg/ml aliquots at −80° C.) every day. Each mouse received daily intraperitoneal (i.p.) injection of 1 μg IL2 in 100 μl saline at various durations. The control mice received daily i.p. injections of 100 μl saline. Note that on the days that the mouse behaviors were tested, IL2 was always injected after completing the behavioral tests. […]"}, "[2]": {"conditions": "human, in vivo; cited from earlier work"}, "[3]": {"test_system": "NTG-induced skin hypersensitivity in mice", "experiment": "Mouse model of chronic migraine (repetitive NTG): hindpaw and facial von Frey thresholds, cheek acetone test", "type": "in vivo", "experimental": "Mouse model of chronic migraine and drug treatments: After measuring baseline nociceptive responses, mice received repetitive intraperitoneal (i.p.) injections of NTG (10 mg/kg in saline with 1% propylene glycol) or vehicle (saline with 1% propylene glycol in saline, 10 mL/kg) every 2 days for 4 or more times as described previously (Pradhan A A, et al. PAIN 2014; 155:269-74). Nocifensive behaviors were measured 2 days after each injection (before the next treatment). NTG (SDM27; Copperhead Chemical, Tamaqua, PA) was freshly diluted from the stock (10% in propylene glycol, aliquoted in airtight glass vials and stored at 4° C.) with saline for every injection. Recombinant mouse IL2 (carrier-free; Biolegend, San Diego, CA) was freshly diluted from the stock (1 mg/mL aliquots at […]) every day. Each mouse received daily i.p. injection of […] IL2 in […] saline. The control mice received daily i.p. injections of […] saline. In Treg depletion experiment, mice received 1 i.p. injection of antibodies against CD25 ([…], BP0012; BioXcell, West Lebanon, NH11) or control IgG (BP0088; BioXcell). The antibody binds to CD25 on Treg cell membrane and depletes Treg cells through Fcg receptor III-mediated antibody-dependent cellular cytotoxicity and antibody-dependent cellular phagocytosis (Setiady Y Y, et al, Eur J Immunol 2010; 40:780-6). Note that on the days that the mouse behaviors were tested, NTG, IL2 and/or antibodies were always injected after completing the behavioral tests.\nResponses to mechanical stimuli on the hindpaw. Mice were habituated in individual clear plexiglass boxes (11×11×15 cm) for 1 to 2 hours. A series of calibrated von Frey filaments was used to apply mechanical stimuli to the plantar surface of the hindpaws. The up-down paradigm was used to determine the 50% withdrawal threshold. The thresholds for both hindpaws were averaged to yield a single value for each mouse.\nCheek acetone test. The acute nocifensive response to acetone-evoked evaporative cooling on mouse cheek was measured as previously described (Constandil L, et al. J Pain 2012; 13:579-89). The day before testing, both cheeks were shaved (6.5×12 mm) under brief anesthesia (2% isoflurane in 100% oxygen). On the test day, mice were habituated in individual plexiglass cylinders (11-cm diameter, 15-cm height) situated in front of 3-way mirrors for 1 to 2 hours. Acetone ([…]) was applied to the shaved cheeks and immediately returned mice to the cylinders. Time spent wiping the treated area was recorded by a video camera and quantified offline. For individual mice, acetone was applied alternatingly to both cheeks at 10-minute intervals, and the duration of behavior was averaged from 4 applications.\nWithdrawal responses to facial mechanical stimuli. The hair on mouse forehead (above and between 2 eyes) was shaved the day before testing. On the test day, the experimenter gently held the mouse on the palm with minimal restraint and applied the calibrated von Frey filament perpendicularly to the shaved skin, causing the filament to bend for 5 seconds. A positive response was determined by the following criteria as previously described: mouse vigorously stroked its face with the forepaw, head withdrawal from the stimulus, or head shaking (Elliott M B et al., Headache 2012; 52:966-84). The up-down paradigm was used to determine the 50% withdrawal threshold. […]"}, "[4]": {"conditions": "ld-IL2 pretreatment, female C57BL/6J"}}}
{"molecule": "B1", "values": [{"measurement": "days of ld-IL2 treatment after which the mechanical threshold started to reverse", "setting": "[1]; 3-week ld-IL2 started 7 days post-SNI, ipsilateral paw", "result": 3, "unit": "days"}, {"measurement": "basal punctate and dynamic mechanical sensitivity", "setting": "[1]; 5 days of ld-IL2 injections before SNI, female Swiss Webster", "result": "not altered"}, {"measurement": "mechanical threshold of SNI+IL2 versus sham+IL2 group", "setting": "[1]; after 7 days of IL2 treatment (day 14-28)", "result": "not different"}, {"measurement": "dynamic allodynia", "setting": "[1]; after 7 days of IL2 treatment (day 15-29)", "result": "completely reversed"}, {"measurement": "integrated AOC of withdrawal threshold between day 10 and 28 post-SNI versus SNI+saline", "setting": "[1]; delayed ld-IL2", "result": "significantly lower"}, {"measurement": "integrated AOC of dynamic allodynia score versus SNI+saline", "setting": "[1]; delayed ld-IL2, between day 10 and 28 post-SNI", "result": "significantly lower"}, {"measurement": "responses to brush stimuli of the contralateral paw and of sham mice", "setting": "[1]; ld-IL2", "result": "did not change"}, {"measurement": "SNI-caused reduction of the withdrawal threshold", "setting": "[1]; ld-IL2 1 μg/mouse/day i.p. from 5 days before to 21 days post-SNI (saline: threshold about 20% of baseline)", "result": 50, "unit": "%"}, {"measurement": "mechanical threshold of the contralateral (left) paw", "setting": "[1]; ld-IL2, SNI mice", "result": "did not change"}, {"measurement": "development of hyper-sensitivity to brush stimuli (dynamic allodynia)", "setting": "[1]; ld-IL2 pretreatment", "result": "prevents the development"}, {"measurement": "magnitude of punctate allodynia (AOC day 0 to day 22 post-SNI)", "setting": "[1]; ld-IL2 pretreatment", "result": "significantly attenuated"}, {"measurement": "tolerability in patients", "setting": "[2]", "result": "well tolerated"}, {"measurement": "basal hindpaw mechanical sensitivity", "setting": "[3]; 5 or 15 days of ld-IL2 injections, male C57BL/6J", "result": "not altered"}, {"measurement": "established persistent facial mechanical hypersensitivity resulting from repeated NTG injections", "setting": "[3]; after 7 to 9 days of IL2 injections, female Swiss Webster", "result": "completely reverse"}, {"measurement": "behavioral sensitization by subsequent NTG administrations", "setting": "[3]; continuous ld-IL2, female C57BL/6J, day 7-11", "result": "prevented"}, {"measurement": "baseline facial mechanical threshold", "setting": "[3]; daily ld-IL2, female Swiss Webster", "result": "not altered"}, {"measurement": "daily ld-IL2 treatments to completely reverse NTG-induced facial hypersensitivity, first session", "setting": "[3]; day 4-10, male C57BL/6J", "result": 7}, {"measurement": "slope of ld-IL2-induced reversal (change of threshold per day), first session", "setting": "[3]; day 5-11, male C57BL/6J", "result": "5.3±0.9"}, {"measurement": "acute reduction of facial mechanical threshold 3 hours after NTG", "setting": "[3]; day 11, after 7 ld-IL2 injections, female C57BL/6J", "result": "did not cause an acute reduction"}, {"measurement": "NTG injections needed after cessation of IL2 to lower the threshold to the NTG+saline level, first session", "setting": "[3]; day 11-13, male C57BL/6J", "result": 2, "unit": "NTG injections"}, {"measurement": "ld-IL2 injections required to completely reverse NTG-induced mechanical hypersensitivity, second session", "setting": "[3]; day 19-22, male C57BL/6J", "result": 4, "unit": "injections"}, {"measurement": "slope of ld-IL2-induced reversal (change of threshold per day), second session", "setting": "[3]; day 19-23, male C57BL/6J", "result": "10.3±1.3"}, {"measurement": "NTG injections needed after cessation of the second ld-IL2 treatment to reduce the threshold to the NTG+saline level", "setting": "[3]; day 23-27, male C57BL/6J", "result": 3, "unit": "NTG injections"}, {"measurement": "development of facial cold hypersensitivity", "setting": "[3]; delayed ld-IL2 started after 2 NTG injections, female Swiss Webster", "result": "blocked the development"}, {"measurement": "ld-IL2 injections sufficient to completely reverse the effect of repeated NTG", "setting": "[3]; female C57BL/6J", "result": 3, "unit": "injections"}, {"measurement": "NTG-induced hindpaw mechanical hypersensitivity", "setting": "[3]; ld-IL2 pretreatment starting 5 days before first NTG, male C57BL/6J", "result": "completely blocked"}, {"measurement": "NTG-induced facial cold hypersensitivity", "setting": "[3]; [4]", "result": "prevented the development"}, {"measurement": "basal responses to acetone-induced cooling", "setting": "[3]; [4]", "result": "did not change"}, {"measurement": "days of ld-IL2 treatment after which NTG-induced mechanical hypersensitivity started to reverse", "setting": "[3]; ld-IL2 started after 2 NTG injections, female Swiss Webster", "result": 5, "unit": "days"}, {"measurement": "effect of ld-IL2 on NTG-induced facial skin hypersensitivity in Treg-depleted mice", "setting": "[3]; mice given anti-CD25 antibody 3 days earlier, male C57BL/6J", "result": "completely abolished"}]}
